These are literature values, as cited in paper PMC2787657.

For orientation: pKd means the negative decadic logarithm of the Kd, by convention in mol/L.

Series [1] has as its target CI-MPR cytoplasmic domain (Homo sapiens) (UniProt P11717).
The target is the same in series [2]. The source holds these as a separate data set.

pKd: −log10 of the molar value. Where two headings read alike, the source gives them in different places.

Chain of UniProt P11717 (P11717 2328-2491): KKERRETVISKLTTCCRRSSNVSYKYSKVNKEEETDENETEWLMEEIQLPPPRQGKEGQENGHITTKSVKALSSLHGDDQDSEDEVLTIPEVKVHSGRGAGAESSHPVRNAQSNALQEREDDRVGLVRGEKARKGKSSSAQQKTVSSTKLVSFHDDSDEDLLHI

For TIP47 (from UniProt O60664), the pKd in series [1] was 6.52; in series [2], 6.05.
